From paper PMC5959753 come the findings set out here.

Substrate in the series: C[N+](C)(C)[C@@H](Cc1cnc([S+]([O-])C[C@H](N)C(=O)O)[nH]1)C(=O)[O-]
Nature of the series: purified protein. The conditions noted are these: pH 8.0, 25 °C, 1 mM DTT.

B1: Egt2 (Neurospora crassa OR74A) (protein)
chain: MVATTVELPLQQKADAAQTVTGPLPFGNSLLKEFVLDPAYRNLNHGSFGTIPSAIQQKLRSYQTAAEARPCPFLRYQTPVLLDESRAAVANLLKVPVETVVFVANATMGVNTVLRNIVWSADGKDEILYFDTIYGACGKTIDYVIEDKRGIVSSRCIPLIYPAEDDDVVAAFRDAIKKSREEGKRPRLAVIDVVSSMPGVRFPFEDIVKICKEEEIISCVDGAQGIGMVDLKITETDPDFLISNCHKWLFTPRGCAVFYVPVRNQHLIRSTLPTSHGFVPQVGNRFNPLVPAGNKSAFVSNFEFVGTVDNSPFFCVKDAIKWREEVLGGEERIMEYMTKLAREGGQKVAEILGTRVLENSTGTLIRCAMVNIALPFVVGEDPKAPVKLTEKEEKDVEGLYEIPHEEANMAFKWMYNVLQDEFNTFVPMTFHRRRFWARLSAQVYLEMSDFEWAGKTLKELCERVAKGEYKESA
For the protein B1, the Km came out at 155 ± 10 µM and the kcat is 8.7 ± 0.1 s⁻¹.
